What was measured:
[1] = biological target: FcγRIIIA-F176-Sino (human) (UniProt P08637); experiment: SPR Biacore T200; binder captured on protein A chip, Fc receptor as analyte
FcγRIIB-Acro (human) = FcγRIIB-Acro (human) (UniProt P31994); experiment: SPR (Biacore T200), antibody captured on protein A sensor chip, Fc receptor as analyte; analyte range 3200nm-25nm

Kd [1]: 0.563 µM | Kd (FcγRIIB-Acro (human)): 3.33 µM
Substance: PDL1-avelumab (antibody)

From US20240360201A1
